Measured values taken from paper PMC5701055 (Nature Communications, 2017).

How the values were obtained:
[1] = molecular target: T1, soluble ectodomain of human aminopeptidase N (hAPN), residues 66–967, WT (human, UniProt P15144 66-967); experiment: SPR; details: both partners purified
[2] = molecular target: T1, soluble ectodomain of human …; experiment: SPR; details: both partners purified; remark: listed apart in the source

T1 sequence (P15144 66-967): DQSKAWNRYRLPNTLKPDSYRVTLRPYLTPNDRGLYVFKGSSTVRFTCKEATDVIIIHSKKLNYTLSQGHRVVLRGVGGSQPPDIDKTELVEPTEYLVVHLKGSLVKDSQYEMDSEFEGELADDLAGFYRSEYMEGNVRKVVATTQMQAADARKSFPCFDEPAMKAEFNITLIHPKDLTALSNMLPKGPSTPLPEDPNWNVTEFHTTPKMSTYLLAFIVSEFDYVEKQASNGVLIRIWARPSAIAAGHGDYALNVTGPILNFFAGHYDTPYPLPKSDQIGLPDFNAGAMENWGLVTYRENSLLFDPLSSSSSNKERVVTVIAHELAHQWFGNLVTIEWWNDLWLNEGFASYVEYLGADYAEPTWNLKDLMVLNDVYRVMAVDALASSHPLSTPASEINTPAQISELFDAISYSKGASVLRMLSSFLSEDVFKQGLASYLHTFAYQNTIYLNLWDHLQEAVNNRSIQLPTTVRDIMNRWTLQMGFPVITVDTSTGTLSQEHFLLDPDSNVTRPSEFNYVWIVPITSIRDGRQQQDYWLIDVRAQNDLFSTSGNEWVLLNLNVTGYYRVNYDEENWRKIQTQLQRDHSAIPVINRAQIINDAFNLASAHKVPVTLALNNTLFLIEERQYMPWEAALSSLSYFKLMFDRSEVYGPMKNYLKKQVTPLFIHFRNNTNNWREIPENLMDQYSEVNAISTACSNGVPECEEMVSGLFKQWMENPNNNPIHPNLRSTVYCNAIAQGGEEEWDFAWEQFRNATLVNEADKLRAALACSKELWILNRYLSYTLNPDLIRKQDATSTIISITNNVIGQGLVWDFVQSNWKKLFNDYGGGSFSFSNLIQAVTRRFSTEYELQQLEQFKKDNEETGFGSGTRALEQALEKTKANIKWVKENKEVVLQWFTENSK

Binder	Kd [1]	koff [1]	kon [1]	Kd [2]	koff [2]	kon [2]
HCoV-229E S-protein S1 region, residues 17–560, WT (domain or fragment) QTTNGLNTSYSVCNGCVGYSENVFAVESGGYIPSDFAFNNWFLLTNTSSVVDGVVRSFQPLLLNCLWSVSGLRFTTGFVYFNGTGRGDCKGFSSDVLSDVIRYNLNFEENLRRGTILFKTSYGVVVFYCTNNTLVSGDAHIPFGTVLGNFYCFVNTTIGNETTSAFVGALPKTVREFVISRTGHFYINGYRYFTLGNVEAVNFNVTTAETTDFCTVALASYADVLVNVSQTSIANIIYCNSVINRLRCDQLSFDVPDGFYSTSPIQSVELPVSIVSLPVYHKHTFIVLYVDFKPQSGGGKCFNCYPAGVNITLANFNETKGPLCVDTSHFTTKYVAVYANVGRWSASINTGNCPFSFGKVNNFVKFGSVCFSLKDIPGGCAMPIVANWAYSKYYTIGSLYVSWSDGDGITGVPQPVEGVSSFMNVTLDKCTKYNIYDVSGVGVIRVSNDTFLNGITYTSTSGNLLGFKDVTKGTIYSITPCNPPDQLVVYQQAVVGAMLSENFTSYGFSNVVELPKFFYASNGTYNCTDAVLTYSSFGVCADGS	1630 nM	0.06 s⁻¹	39000 M⁻¹ s⁻¹			
HCoV-229E S-protein receptor-binding domain (RBD), residues 293–435, WT (Class I) (domain or fragment) LPVYHKHTFIVLYVDFKPQSGGGKCFNCYPAGVNITLANFNETKGPLCVDTSHFTTKYVAVYANVGRWSASINTGNCPFSFGKVNNFVKFGSVCFSLKDIPGGCAMPIVANWAYSKYYTIGSLYVSWSDGDGITGVPQPVEGV	430 nM	0.16 s⁻¹	360000 M⁻¹ s⁻¹	434 nM	0.16 s⁻¹	360000 M⁻¹ s⁻¹
